Test results: USRE46585 (LABORATOIRE FRANCAIS DU FRACTIONNEMENT ET DES …, dated 2017)
Numbering of substitutions follows the chain as printed.

B1: T5A_45 (other)
chain: CPPCPTPELLGGPSVLLFPPKPKDTLMISRTPEVTCVVEDVSHEDPEVKFNWYVDGVEVHNAKTKPREEQYNSTYRVVSVLTVLHQDWLNGKEYKCKVSNKALPAPIEKTISKAKGQPREPQVYTLPPSRDELTKNQVSLTCLVKGFYPSDITVEWESNGQPENNYKTTPPMLDSDGSFFLYSKLTVDKSRWQQGNVFSCSVMHEALHSHYTQKSLSLSPGK
notes: EU numbering
B2: T6A_85 (other)
chain: B1 chain with T6A, L16F, T25A, E39V, N90D, N100S, A105V, T153A, M172V, S209Y
notes: EU numbering
B3: C5A_09 (other)
chain: B1 chain with T6A, T82P, T153V, M172V
notes: EU numbering
B4: C3A_13 (other)
chain: B1 chain with C1G, T6A, L16F, E39V, N90D, A105V, T153A, M172V, S209Y
notes: EU numbering
B5: T5A_93 (other)
chain: B1 chain with T6A, L16F, E39V, V80A, N90D, A105V, T153A, P170A, M172V, S209Y
notes: EU numbering
B6: T4A_42 (other)
chain: B1 chain with C1G, T6A, L16F, E39V, N90D, Q137R, T153A, M172V, S209Y
notes: EU numbering
B7: T8A_45 (other)
chain: B1 chain with T6A, L16F, E39V, S150A, T153V, M172V, S209Y
notes: EU numbering
B8: C6A_85 (other)
chain: B1 chain with T6A, L16F, E39V, V80A, N90D, A105V, T153A, N164K, M172V, S209Y
notes: EU numbering
B9: T5A_87 (other)
chain: B1 chain with T6A, L16F, E39V, N90D, A105V, Q137R, T153A, M172V, S209Y
notes: EU numbering
B10: C8A_15 (other)
chain: B1 chain with T6A, L16F, E39V, N90D, A102V, A105V, T153A, S209Y
notes: EU numbering
B11: T5A_57 (other)
chain: B1 chain with T6A, E39V, N90D, A105V, T153A, K167R, M172V, S209Y
notes: EU numbering
B12: T5A_55 (other)
chain: B1 chain with P5L, T6A, F18L, T82P, T153V, M172V, S209N
notes: EU numbering
B13: T6A_75 (other)
chain: B1 chain with P5T, T6A, L16F, E39V, N90D, Q137R, T153A, M172V, S201T, S209Y
notes: EU numbering
B14: T4A_48 (other)
chain: B1 chain with T6A, L16F, E39V, V83I, N90D, A105V, T153A, E157V, M172V, S209Y
notes: EU numbering
B15: C6A_12 (other)
chain: B1 chain with P5T, T6A, L16F, E39V, N90D, Q137E, T153A, M172V, S209Y
notes: EU numbering
B16: T4A_37 (other)
chain: B1 chain with P5S, T6A, L16F, P127S, T153V, M172V
notes: EU numbering
B17: C5A_39 (other)
chain: B1 chain with T6A, L16F, E39V, K65E, N90D, Q117R, T153A, E157V, M172V, S209Y
notes: EU numbering
B18: T7A_92 (other)
chain: B1 chain with T6A, L16F, T153A, P171L, M172V, S190N
notes: EU numbering
B19: T5A_25 (other)
chain: B1 chain with C1G, T6A, L16F, Q122R, K145R, T153V, M172V
notes: EU numbering
B20: C6A_48 (other)
chain: B1 chain with P5T, T6A, L16F, T153V, M172V
notes: EU numbering
B21: C5A_65 (other)
chain: B1 chain with P5T, T6A, L16F, E39V, N90D, A105V, T153A, Q161K, M172V, S209Y
notes: EU numbering
B22: T8A_81 (other)
chain: B1 chain with T6A, L16F, E39A, N90D, T153A, E157V, M172V, S209Y
notes: EU numbering
B23: B4A_03 (other)
chain: B1 chain with T6A, L16F, E39V, R67W, T82P, A105V, T153A, M172V
notes: EU numbering
B24: B6A_20 (other)
chain: B1 chain with T6A, L16F, E39V, K95T, T153A, M172V, S209Y, K214R, K222E
notes: EU numbering
B25: L4A_28 (other)
chain: B1 chain with T6A, L16F, E39V, T153A, M172V, M203L, Q213R, P220S
notes: EU numbering
B26: B5A_25 (other)
chain: B1 chain with T6A, L16F, F18L, E39V, N90D, T153A, M172V, T186A
notes: EU numbering
B27: L3A_39 (other)
chain: B1 chain with T6A, L16F, E39V, S150G, T153A, P170S, M172V
notes: EU numbering
B28: B5A_16 (other)
chain: CPPCPAPELLGGPAVFLFPPKPKDTLMISRTPEVTCVVVDVSHEDPEVKFNWYVDGVEVHNAKTKPREEQYNGTYRVVSVLTVLHQDWLDGKEYKCKVSNKALPAPIEKTISKAKGQPREPRVYTLPPSRDELTKNQVSLTCLVKGFYPSDIAVEWESNGQPENNYKTTPPVLDSDGSFFLYSKLTVDKSRWQQGNVFSCSVMHEALHYHYTQKRLSLSPGK
notes: EU numbering
B29: L6B_31 (other)
chain: B1 chain with P5T, T6A, L16F, E39V, V80A, T82A, T153V, M172V, L173P
notes: EU numbering
B30: S3A_06 (other)
chain: B1 chain with P5T, L16F, E39V, T153V, M172V, S209N
notes: EU numbering
B31: B5A_17 (other)
chain: B28 chain with A14S, G73S, R122Q, Q137R, R215S
notes: EU numbering
B32: B6A_31 (other)
chain: B28 chain with A14S, G73S, D90N, R122Q, S150G, M203L, H208P, Y209N, R215S
notes: EU numbering
B33: B6A_41 (other)
chain: B28 chain with A14S, G73S, D90N, R122Q, Q213R, R215S, K222E
notes: EU numbering
B34: T5A_74F (other)
chain: B28 chain with P3R, P5S, A14S, G73S, A105V, R122Q, N136D, A153V, R215S
notes: EU numbering
B35: C6A_74D (other)
chain: B28 chain with P3R, A14S, V34I, G73S, R122Q, R215S
notes: EU numbering
B36: C6A_78D (other)
chain: B28 chain with P3R, A14S, T31N, G73S, D90N, R122Q, A153V, R215S
notes: EU numbering
B37: T5A_74D (other)
chain: B28 chain with P3R, A14S, G73S, A105V, R122Q, N136D, A153V, R215S
notes: EU numbering
B38: C6A_69D (other)
chain: B28 chain with P3L, A14S, G73S, T82A, A105V, R122Q, E157V, N164T, R215S
notes: EU numbering
B39: C6A_60C (other)
chain: B28 chain with P3L, P5S, A14S, G73S, R122Q, M203L, R215S
notes: EU numbering
B40: T5A_74C (other)
chain: B28 chain with P3L, A14S, G73S, A105V, R122Q, N136D, A153V, R215S
notes: EU numbering
B41: T5A_74B (other)
chain: B28 chain with P5S, A14S, G73S, A105V, R122Q, N136D, A153V, R215S
notes: EU numbering
B42: C6A_78C (other)
chain: B28 chain with P5S, A14S, T31N, G73S, D90N, R122Q, A153V, R215S
notes: EU numbering
B43: C6A_60D (other)
chain: B28 chain with P3R, P5S, A14S, G73S, R122Q, M203L, R215S
notes: EU numbering
B44: C6A_78B (other)
chain: B28 chain with P3L, A14S, T31N, G73S, D90N, R122Q, A153V, R215S
notes: EU numbering
B45: C6A_78F (other)
chain: B28 chain with P3R, P5S, A14S, T31N, G73S, D90N, R122Q, A153V, R215S
notes: EU numbering

Each binder was assayed against T1, FcRn-p3 fusion protein (human, UniProt P55899 24-297; P61769 21-119) (assay: phage ELISA pH6).
T1 construct: baculovirus expressed; coated on ELISA wells; not shown: amino terminal part of bacteriophage p3 protein and CVDE protein

Row | Ratio/Fc-H [fold] | Binder
1 | 4.5 | B1
2 | 5.1 | B2
3 | 4.8 | B3
4 | 5.6 | B4
5 | 8 | B5
6 | 4.6 | B6
7 | 1.8 | B7
8 | 7.4 | B8
9 | 7.8 | B9
10 | 7.4 | B10
11 | 4.9 | B11
12 | 5.6 | B12
13 | 5.7 | B13
14 | 4.5 | B14
15 | 4.6 | B15
16 | 4 | B16
17 | 5 | B17
18 | 6.7 | B18
19 | 4.6 | B19
20 | 4.5 | B20
21 | 4.2 | B21
22 | 2.5 | B22

Biological target: T1, FcRn-p3 fusion protein
Assay: phage ELISA pH6
Remark: another data set of the same source

Row | Ratio/Fc-WT [fold] | Binder
23 | 3.7 | B23
24 | 3.7 | B24
25 | 5.2 | B25
26 | 3.6 | B26
27 | 3.2 | B27
28 | 5.6 | B28
29 | 6.3 | B29
30 | 3.6 | B30
31 | 4.6 | B31
32 | 5 | B32
33 | 4.3 | B33

The binders below were run against T1, FcRn-p3 fusion protein (assay: phage ELISA pH6 (est.)).

Row | Ratio/Fc-WT [fold] | Binder
34 | 14.3 | B1
35 | 16.3 | B2
36 | 15.2 | B3
37 | 17.9 | B4
38 | 25.7 | B5
39 | 14.7 | B6
40 | 53.8 | B34
41 | 23.8 | B8
42 | 59.7 | B35
43 | 25 | B9
44 | 90.5 | B36
45 | 23.7 | B10
46 | 15.8 | B11
47 | 17.9 | B12
48 | 83.1 | B37
49 | 15.3 | B38

Row | Ratio/Fc-WT [fold] | Binder
50 | 17.1 | B39
51 | 18.3 | B13
52 | 24 | B40
53 | 14.5 | B14
54 | 18.8 | B41
55 | 14.9 | B15
56 | 12.8 | B16
57 | 15.9 | B17
58 | 21.4 | B18
59 | 14.7 | B19
60 | 29.4 | B42
61 | 14.4 | B20
62 | 23.8 | B43
63 | 13.5 | B21
64 | 45.9 | B44
65 | 30.1 | B45

Biological target: T1, FcRn-p3 fusion protein
Assay: phage ELISA pH6
Remark: another data set of the same source

Row | Ratio/Fc-H [fold] | Binder
66 | 4.5 | B1
67 | 5.1 | B2
68 | 4.8 | B3
69 | 5.6 | B4
70 | 8 | B5
71 | 4.6 | B6
72 | 16.8 | B34
73 | 7.4 | B8
74 | 18.6 | B35
75 | 7.8 | B9
76 | 28.3 | B36
77 | 7.4 | B10
78 | 4.9 | B11
79 | 5.6 | B12
80 | 26 | B37
81 | 4.8 | B38

Row | Ratio/Fc-H [fold] | Binder
82 | 5.3 | B39
83 | 5.7 | B13
84 | 7.5 | B40
85 | 4.5 | B14
86 | 5.9 | B41
87 | 4.6 | B15
88 | 4 | B16
89 | 5 | B17
90 | 6.7 | B18
91 | 4.6 | B19
92 | 9.2 | B42
93 | 4.5 | B20
94 | 7.4 | B43
95 | 4.2 | B21
96 | 14.4 | B44
97 | 9.4 | B45

Biological target: T1, FcRn-p3 fusion protein
Assay: phage ELISA pH6 (est.)
Remark: another data set of the same source

Row | Ratio/FWT [fold] | Binder
98 | 14.3 | B1
99 | 16.3 | B2
100 | 15.2 | B3
101 | 17.9 | B4
102 | 25.7 | B5
103 | 14.7 | B6
104 | 5.9 | B7
105 | 23.8 | B8
106 | 25 | B9
107 | 23.7 | B10
108 | 15.8 | B11
109 | 17.9 | B12
110 | 18.3 | B13
111 | 14.5 | B14
112 | 14.9 | B15
113 | 12.8 | B16
114 | 15.9 | B17
115 | 21.4 | B18
116 | 14.7 | B19
117 | 14.4 | B20
118 | 13.5 | B21
119 | 8.2 | B22
